Test results published in article PMC11601262.

Biological target: T1, CFP tagged hABHD5 (FCCS) (human), Q8WTS1
T1 chain: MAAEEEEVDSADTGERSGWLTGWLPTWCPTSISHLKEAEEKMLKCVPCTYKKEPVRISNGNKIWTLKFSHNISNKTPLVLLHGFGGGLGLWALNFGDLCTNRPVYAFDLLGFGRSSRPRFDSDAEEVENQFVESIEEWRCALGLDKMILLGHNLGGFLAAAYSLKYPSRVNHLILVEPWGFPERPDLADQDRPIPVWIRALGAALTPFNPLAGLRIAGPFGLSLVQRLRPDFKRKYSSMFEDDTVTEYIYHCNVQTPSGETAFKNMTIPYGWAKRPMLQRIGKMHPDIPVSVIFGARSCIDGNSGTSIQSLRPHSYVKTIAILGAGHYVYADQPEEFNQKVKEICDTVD
Experiment: fluorescence cross-correlation spectroscopy
Details: remark: other sources report otherwise

- percent of ABHD5 co-diffusing with PNPLA3: 24%
- percent of PNPLA3 co-diffusing with ABHD5: 78%
B1: hPNPLA3 WT-EYFP, Q9NST1 1-481 (natural protein)
chain: MYDAERGWSLSFAGCGFLGFYHVGATRCLSEHAPHLLRDARMLFGASAGALHCVGVLSGIPLEQTLQVLSDLVRKARSRNIGIFHPSFNLSKFLRQGLCKCLPANVHQLISGKIGISLTRVSDGENVLVSDFRSKDEVVDALVCSCFIPFYSGLIPPSFRGVRYVDGGVSDNVPFIDAKTTITVSPFYGEYDICPKVKSTNFLHVDITKLSLRLCTGNLYLLSRAFVPPDLKVLGEICLRGYLDAFRFLEEKGICNRPQPGLKSSSEGMDPEVAMPSWANMSLDSSPESAALAVRLEGDELLDHLRLSILPWDESILDTLSPRLATALSEEMKDKGGYMSKICNLLPIRIMSYVMLPCTLPVESAIAIVQRLVTWLPDMPDDVLWLQWVTSQVFTRVLMCLLPASRSQMPVSSQQASPCTPEQDWPCWTPCSPKGCPAETKAEATPRSILRSSLNFFLGNKVPAGAEGLSTFPSFSLEKSL
